Data taken from patent US20240059788A1 (Kyowa Kirin, published 2024).

T1: monkey CD40-GST (monkey, UniProt P25942 21-193 (human entry))
T1 construct: not shown: GST region of the N5 vector
T1 chain: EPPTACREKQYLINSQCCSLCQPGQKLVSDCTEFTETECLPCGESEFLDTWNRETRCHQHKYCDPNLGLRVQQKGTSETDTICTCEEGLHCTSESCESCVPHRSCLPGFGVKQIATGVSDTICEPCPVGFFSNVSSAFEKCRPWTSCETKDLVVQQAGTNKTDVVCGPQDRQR

T2: human EpCAM-GST (human, UniProt P16422 24-265)
T2 construct: also called soluble human EpCAM antigen; not shown: GST added to the C terminus (N5 vector)
T2 sequence: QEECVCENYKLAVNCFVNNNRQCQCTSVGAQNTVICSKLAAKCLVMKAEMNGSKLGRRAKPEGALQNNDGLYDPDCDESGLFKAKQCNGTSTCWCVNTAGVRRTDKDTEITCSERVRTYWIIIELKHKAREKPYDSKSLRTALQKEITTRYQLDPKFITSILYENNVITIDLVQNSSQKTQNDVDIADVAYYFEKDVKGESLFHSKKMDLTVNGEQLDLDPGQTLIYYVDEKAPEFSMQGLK

T3: monkey EpCAM-GST (monkey, UniProt Q1WER1 24-265)
T3 construct: not shown: GST added to the C terminus (N5 vector)
T3 sequence: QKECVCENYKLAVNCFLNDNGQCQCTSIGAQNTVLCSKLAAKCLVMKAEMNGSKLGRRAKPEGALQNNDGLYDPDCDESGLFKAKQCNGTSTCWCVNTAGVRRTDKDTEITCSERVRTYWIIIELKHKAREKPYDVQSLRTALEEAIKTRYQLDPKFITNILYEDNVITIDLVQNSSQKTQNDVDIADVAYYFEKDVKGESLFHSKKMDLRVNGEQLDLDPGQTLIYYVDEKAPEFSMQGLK

T4: mouse EpCAM-GST (mouse, UniProt Q99JW5 24-266)
T4 construct: not shown: GST added to the C terminus (N5 vector)
T4 sequence: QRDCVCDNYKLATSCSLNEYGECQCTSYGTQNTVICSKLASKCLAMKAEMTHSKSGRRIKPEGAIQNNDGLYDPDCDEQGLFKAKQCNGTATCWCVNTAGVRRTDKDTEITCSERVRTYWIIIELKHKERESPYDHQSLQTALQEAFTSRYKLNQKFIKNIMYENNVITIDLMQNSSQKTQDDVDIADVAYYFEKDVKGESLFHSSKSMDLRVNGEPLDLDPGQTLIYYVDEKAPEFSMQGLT

T5: human EpCAM on human EpCAM/HEK 293 cells and Colo 205 cells (human, UniProt P16422 24-314)
T5 construct: Colo 205 cells carry native EpCAM; also called hEpCAM
T5 sequence: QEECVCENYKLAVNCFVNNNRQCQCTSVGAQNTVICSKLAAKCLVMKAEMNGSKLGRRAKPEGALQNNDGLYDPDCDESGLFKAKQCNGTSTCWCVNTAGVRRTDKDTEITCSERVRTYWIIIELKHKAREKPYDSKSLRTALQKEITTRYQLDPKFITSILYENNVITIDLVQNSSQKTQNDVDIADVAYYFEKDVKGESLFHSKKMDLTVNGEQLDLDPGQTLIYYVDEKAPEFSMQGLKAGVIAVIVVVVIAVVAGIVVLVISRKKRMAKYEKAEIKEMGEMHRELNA

T6: mouse CD40 (mouse, UniProt P27512 20-193, limits assumed)
T6 sequence (looked up): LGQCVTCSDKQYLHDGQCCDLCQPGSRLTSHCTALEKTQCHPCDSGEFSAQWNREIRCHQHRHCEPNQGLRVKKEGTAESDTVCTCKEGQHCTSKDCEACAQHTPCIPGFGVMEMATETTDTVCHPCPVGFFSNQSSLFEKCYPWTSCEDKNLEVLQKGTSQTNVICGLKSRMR


Assays:
monkey CD40-GST = target: T1, monkey CD40-GST; experiment: phage ELISA on immobilized CD40-GST
Protocol: (§1) In the ELISA, MAXISORP (manufactured by NUNC, Inc.) in which the human or monkey CD40-GST in Example 1 was immobilized on each well and a portion to which the human or monkey CD40-GST is not bound was blocked using SuperBlock Blockig Buffer (manufactured by Thermo Fisher, Inc.) was used. To each well, each phage clone was added and reacted at room temperature for 30 minutes, and thereafter, each well was washed 3 times with PBS-T.
(§2) Subsequently, an anti-M13 antibody (manufactured by GE Healthcare, Inc.) labeled with horseradish peroxidase was diluted by 5000 times with PBS-T containing 10% Block Ace (manufactured by Dainippon Pharmaceutical Co., Ltd.), and the resultant was added in an amount of 50 μL to each well, and incubated at room temperature for 30 minutes. After the microplate was washed four times with PBS-T, a TMB chromogenic substrate solution (manufactured by DAKO, Inc.) was added in an amount of 50 μL to each well and incubated at room temperature for 10 minutes.

human CD40-GST = target: T7, human CD40-GST (human, UniProt P25942 21-193); experiment: phage ELISA on immobilized CD40-GST
T7 construct: also called soluble human CD40 antigen; not shown: GST region of the N5 vector
Protocol: as §1, §2

human EpCAM-GST = target: T2, human EpCAM-GST; experiment: phage ELISA on immobilized EpCAM-GST
monkey EpCAM-GST = target: T3, monkey EpCAM-GST; experiment: phage ELISA on immobilized EpCAM-GST
mouse EpCAM-GST = target: T4, mouse EpCAM-GST; experiment: phage ELISA on immobilized EpCAM-GST
[1] = target: T8, human CD40 on Ramos cells (human, UniProt P25942 21-277); experiment: flow cytometry on Ramos cells, detection with goat F(ab')2 anti-human IgG R-PE [A]
T8 construct: Native CD40 of Ramos cells (Burkitt's lymphoma)
Protocol: (§3) Ramos cells were suspended in Staining Buffer (SB) that is D-PBS(−) containing 0.1% NaN₃ and 1% FBS at a cell density of 1×10⁶ cells/mL, and the suspension was dispensed in a 96-well round bottom plate (manufactured by Falcon, Inc.) at 100 μL/well.
(§4) After further centrifugation (2000 rpm, 4° C., 2 minutes), the supernatant was removed, the resulting pellet was washed three times with 200 μL/well of SB, and thereafter, 1 μg/mL of Goat F(ab′)₂ Anti-Human IgG (γ chain specific) R-phycoerythrin (R-PE) Conjugate (manufactured by Southern Biotech, Inc.) was added at 50 μL/well, and the resultant was incubated for 30 minutes at ice temperature. After washing twice with SB, the cells were suspended in 200 μL/well of SB, and the fluorescence intensity of each cell was measured using a flow cytometer FACSCANTO II (manufactured by Becton, Dickinson and Company).

[2] = target: T5, human EpCAM on human EpCAM/HEK 293 …; experiment: flow cytometry on Colo 205 cells and on human EpCAM/HEK 293 cells, antibody at 10 ug/mL, detection with goat F(ab')2 anti-human IgG R-PE [B), (D]
Protocol: as §3, §4
(§5) Similarly, Colo 205 cells, HEK 293 cells, and human EpCAM/HEK 293 cells were evaluated, respectively. As the negative control, IgG4 antibodies 5228P, L235E, and R409K mutants (hereinafter referred to as anti-DNP antibodies) produced according to the method described in Example 5 of WO 2006/033386 using a vector encoding VL and VH (GenBank accession No. VL U16688, VH U116687) of the 2,4-dinitrophenol (DNP) antibody described in Mol Immunol. 1996 June; 33 (9): 759-68 were used.

[3] = target: T5, human EpCAM on human EpCAM/HEK 293 …; experiment: flow cytometry on Colo 205 cells and on human EpCAM/HEK 293 cells, detection with goat F(ab')2 anti-human IgG R-PE [B), (D]
Protocol: as §3, §4, §5

mouse CD40 = target: T6, mouse CD40; experiment: not described

Row | Binder | binding result (monkey CD40-GST) | binding result (human CD40-GST) | binding result (human EpCAM-GST) | binding result (monkey EpCAM-GST) | binding result (mouse EpCAM-GST) | also measured
1 | R1066 phage clone (scFv, V domains shown) VH: QVQLQQWGAGLLKPSETLSLTCAVYGGSFSGYYWSWIRQPPGKGLEWIGEINHGGITHYNPSLKSRVTISVDTSKNQFSLKLSSVTAADTAVYYCARDNYYGSGSYYKYDYYGMDVWGQGTTVTVSS VL: not shown | binds | binds |  |  |  | 
2 | R2089 phage clone (scFv, V domains shown) VH: EVQLVQSGAEVKKPGASVKVSCKASGYSFTRYIMHWVRQAPGQRLEWMGWINAGNGNTKYSQKFQGRVTITRDTSANTAYMELSSLRSEDTAVYYCARDEPVAGSFFDYWGQGTLVTVSS VL: not shown | binds | binds |  |  |  | 
3 | Ep203 phage clone (scFv, V domains shown) VH: EVQLVQSGAEVKKPGASVKVSCKASGFTFSSYYMHWVRQAPGQGLEWMGIVNPTGGATSYAQKFQGRVTMTRDTSTSTVYMELSSLRSEDTAVYYCAKHGYGASTLFDSWGQGTLVTVSS VL: not shown |  |  | binds | binds | binds | 
4 | R2178 phage clone (scFv, V domains shown) VH: QVQLQQWGAGLLKPSETLSLTCAVYGGSFSGYYWSWIRQSPGKGLEWIGEINHGGITNYNPSLKSRVTISVDTSKNQFSLKLGSVTAADTAVYYCARDNYYGSGSNDGVYQYYGIDVWGQGTTVTVSS VL: not shown | binds | binds |  |  |  | 
5 | Epc112 phage clone (scFv, V domains shown) VH: EVQLVQSGTEVKKPGASVKVSCRASGNTFTNYYIHWVRQAPGQGLEWMGIINPSGGATNYAQILQGRVTMTRDTSTSTVYMELSSLRSEDTAVYYCAGGGSAATFAYWGQGTLVTVSS VL: not shown |  |  | binds | binds | binds | 
6 | Epc051 phage clone (scFv, V domains shown) VH: EVQLVQSGAEVKKPGASVKVSCKASGYTFTSNYMHWVRQAPGQGLEWMGIINPSGGATSYAQKFQGRVTMTRDTSTSTVYMELSSLRSEDTAVYYCASGGYYGSVIMDVWGQGTLVTVSS VL: not shown |  |  | binds | binds | binds | 
7 | anti-EpCAM monoclonal antibody 3622W94 (antibody, V domains shown) VH: QVQLVQSGPEVKKPGASVKVSCKASGYTFTNYGMNWVRQAPGQGLEWMGWINTYTGEPTYGEDFKGRFAFSLDTSASTAYMELSSLRSEDTAVYFCARFGNYVDYWGQGSLVTVSS VL: DIVMTQSPLSLPVTPGEPASISCRSSKNLLHSNGITYLYWYLQKPGQSPQLLIYQMSNLASGVPDRFSSSGSGTDFTLKISRVEAEDVGVYYCAQNLEIPRTFGQGTKVEIK |  |  |  |  |  | binding result [1]: no binding (tested: 10 ug/mL); binding result [2]: binds
8 | anti-CD40 monoclonal antibody 21.4.1 (antibody, V domains shown, also called anti-CD40 agonistic antibody; CP870,893) VH: not shown VL: DIQMTQSPSSVSASVGDRVTITCRASQGIYSWLAWYQQKPGKAPNLLIYTASTLQSGVPSRFSGSGSGTDFTLTISSLQPEDFATYYCQQANIFPLTFGGGTKVQIK |  |  |  |  |  | binding result [3]: no binding (tested: 10 ug/mL); binding result (mouse CD40): no binding
